Data reported in paper PMC9438803 (Life Science Alliance, 2021).
Blank lines part the entries; values can stand above or below the binder they belong to.

How the values were obtained:
dock II minimal = dock II minimal (Homo sapiens, UniProt O95602 1081-1146); experiment: EMSA; up to 50x protein excess; no major DNA binding; EMSA: 100 fmol DNA, up to 50x protein, RT 30 min; buffer 1: 10 mM Tris pH 7.5, 50 mM NaCl, 1 mM MgCl2, 4% glycerol, 0.5 mM EDTA, 0.5 mM DTT; or buffer 2: 20 mM; conditions: protein: recombinant; tags: C-term His-MBP; label: 5'-Cy5 on strand 1; blunt
[1] = target: RPA49/RPA34 heterodimer full length (Homo sapiens, UniProt Q9GZS1;O15446 1-419;1-510); experiment: EMSA; EMSA: 100 fmol DNA, up to 50x protein, RT 30 min; buffer 1: 10 mM Tris pH 7.5, 50 mM NaCl, 1 mM MgCl2, 4% glycerol, 0.5 mM EDTA, 0.5 mM DTT; or buffer 2: 20 mM; conditions: protein: recombinant; tags: N-term 6xHis on RPA49; RPA34 untagged; copies: 1;1; label: 5'-Cy5 on strand 1; blunt
Chain of RPA49/RPA34 heterodimer full length (Q9GZS1 whole entry, chain 1 of 2, the tested form may be a part): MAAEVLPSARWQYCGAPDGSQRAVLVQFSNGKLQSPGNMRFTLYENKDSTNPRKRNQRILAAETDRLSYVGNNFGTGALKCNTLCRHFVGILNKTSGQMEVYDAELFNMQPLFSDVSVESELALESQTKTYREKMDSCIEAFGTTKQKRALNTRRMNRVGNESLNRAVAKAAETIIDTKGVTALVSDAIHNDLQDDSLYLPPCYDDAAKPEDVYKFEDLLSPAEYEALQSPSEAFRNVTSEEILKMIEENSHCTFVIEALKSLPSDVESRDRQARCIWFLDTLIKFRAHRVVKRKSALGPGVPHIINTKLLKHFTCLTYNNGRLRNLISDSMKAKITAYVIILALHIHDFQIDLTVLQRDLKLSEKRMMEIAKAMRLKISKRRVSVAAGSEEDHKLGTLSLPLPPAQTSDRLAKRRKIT
Chain of RPA49/RPA34 heterodimer full length (O15446 whole entry, chain 2 of 2, the tested form may be a part): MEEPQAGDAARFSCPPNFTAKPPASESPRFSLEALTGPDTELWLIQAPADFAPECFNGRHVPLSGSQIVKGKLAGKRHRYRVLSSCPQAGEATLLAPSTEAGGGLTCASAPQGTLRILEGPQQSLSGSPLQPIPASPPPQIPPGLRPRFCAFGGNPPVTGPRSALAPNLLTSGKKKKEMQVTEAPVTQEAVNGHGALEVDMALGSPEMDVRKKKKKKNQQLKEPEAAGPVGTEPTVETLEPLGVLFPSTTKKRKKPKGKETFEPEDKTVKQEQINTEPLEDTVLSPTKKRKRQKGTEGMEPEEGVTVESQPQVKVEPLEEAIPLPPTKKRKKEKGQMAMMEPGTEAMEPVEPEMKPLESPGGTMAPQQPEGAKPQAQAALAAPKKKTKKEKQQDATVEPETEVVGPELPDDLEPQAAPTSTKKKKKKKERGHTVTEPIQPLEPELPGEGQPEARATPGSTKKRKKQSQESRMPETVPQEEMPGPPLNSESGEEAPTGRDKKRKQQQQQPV

[2] = target: T1, recombinant human Topoisomerase 2a lacking the unstructured C-terminal domain (1-1,217) (human, UniProt P11388 1-1217); experiment: mass spectrometry of bands cut from the native PAGE; unshifted and shifted Top2a bands of the blue-native gel analysed by mass spectrometry; conditions: both partners purified
T1 construct: human Topoisomerase 2a residues 1-1,217; A legend on the cited structures calls Top2a a homodimer; also called Top2a ΔC; Top2aΔCTD; source: recombinant, purified
T1 sequence (P11388 1-1217): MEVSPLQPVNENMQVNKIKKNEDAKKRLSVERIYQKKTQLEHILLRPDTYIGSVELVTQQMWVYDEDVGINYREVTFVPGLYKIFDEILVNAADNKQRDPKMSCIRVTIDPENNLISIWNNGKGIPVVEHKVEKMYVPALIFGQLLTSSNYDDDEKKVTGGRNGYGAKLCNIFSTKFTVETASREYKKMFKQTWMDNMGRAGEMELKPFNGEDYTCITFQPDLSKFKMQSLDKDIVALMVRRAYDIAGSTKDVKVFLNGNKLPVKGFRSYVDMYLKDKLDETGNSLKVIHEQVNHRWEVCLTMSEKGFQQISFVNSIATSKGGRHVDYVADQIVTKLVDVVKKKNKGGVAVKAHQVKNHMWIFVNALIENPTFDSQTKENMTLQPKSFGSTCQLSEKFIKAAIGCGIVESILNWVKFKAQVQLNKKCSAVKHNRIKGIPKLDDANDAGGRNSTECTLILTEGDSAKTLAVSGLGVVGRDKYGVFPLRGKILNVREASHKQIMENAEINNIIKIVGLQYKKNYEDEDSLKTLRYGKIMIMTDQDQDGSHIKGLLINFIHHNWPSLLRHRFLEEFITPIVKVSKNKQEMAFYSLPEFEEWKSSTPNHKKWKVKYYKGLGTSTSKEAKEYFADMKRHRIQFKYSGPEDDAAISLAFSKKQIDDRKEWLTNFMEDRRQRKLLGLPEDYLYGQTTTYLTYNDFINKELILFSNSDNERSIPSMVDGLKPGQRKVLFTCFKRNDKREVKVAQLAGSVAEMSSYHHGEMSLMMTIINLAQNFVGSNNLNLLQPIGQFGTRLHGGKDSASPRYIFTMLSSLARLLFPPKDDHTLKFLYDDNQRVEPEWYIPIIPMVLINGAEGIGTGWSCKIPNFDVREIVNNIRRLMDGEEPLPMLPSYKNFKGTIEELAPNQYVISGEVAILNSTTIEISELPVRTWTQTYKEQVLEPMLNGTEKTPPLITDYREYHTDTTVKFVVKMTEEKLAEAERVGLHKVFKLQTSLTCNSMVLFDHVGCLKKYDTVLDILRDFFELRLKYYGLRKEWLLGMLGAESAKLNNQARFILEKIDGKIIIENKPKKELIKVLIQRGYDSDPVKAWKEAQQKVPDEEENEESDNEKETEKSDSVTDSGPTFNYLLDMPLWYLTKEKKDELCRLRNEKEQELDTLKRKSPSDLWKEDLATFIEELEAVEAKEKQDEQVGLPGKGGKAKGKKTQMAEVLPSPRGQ

B1: EMSA-DNA 40 bp (dsDNA)
DNA 1: CTGGAACAACACTCAACCCTATCTCGGTCTATTCTTTTGA
DNA 2: TCAAAAGAATAGACCGAGATAGGGTTGAGTGTTGTTCCAG
binding result (dock II minimal): no binding
binding result [1]: binds

binding result [2]: binds
B2: human dock II domain, full-length fragment (RPA1 1060-1155) with C-terminal His-MBP-tag (domain or fragment, UniProt O95602 1060-1155, looked up)
chain: ADPKKALHHFRAIKKWQSKHPNTLLRRGAFLSYSQKIQEAVKALKLESENRNGRSPGTQEMLRMWYELDEESRRKYQKKAAACPDPSLSVWRPDIY
notes: human RPA1 residues 1060-1155, the dock II domain (HMG box-like foot insertion); The results call it MBP-dock II; the methods say that the His-MBP tag is C-terminal; also called full-length MBP-dock II; dock II-MBP fusion; source: E. coli BL21 (DE3) RIL, purified (Ni-NTA, Superdex 75); not shown: His, C-terminal, kept; MBP, C-terminal, kept
